Laboratory results taken from article PMC10679814, “Yeast lunapark regulates the formation of trans-Sey1p complexes for homotypic ER membrane fusion” (iScience, 2023).
Blank lines part the entries; values can stand above or below the molecule they belong to.

Assays:
[1] = target: Sey1p-ΔTM (S. cerevisiae); experiment: SEC; Superdex 200 (10/300), 20 mM HEPES-NaOH pH 7.4, 150 mM NaCl; Sey1p-ΔTM incubated at 30°C for 1 h with GMP-PNP, without or with the Lnp1p peptide
[2] = target: T1, His6-tagged Sey1p-(1-283) (S. cerevisiae, UniProt Q99287 1-283); experiment: pull-down; 40 μg his6-tagged protein with 20 μM Lnp1p peptide in RB150 buffer, 0.4% Triton X-100, 20 mM imidazole, 4°C 2 h; Ni-NTA agarose 30 min; SDS-PAGE, Coomassie; details: both partners purified
T1 construct: Sey1p, S. cerevisiae, amino acids 1-283 (GTPase domain); in pET28a; also called GTPase domain of Sey1p; source: E. coli Rosetta-2 DE3, purified (Ni-NTA)
T1 sequence (looked up): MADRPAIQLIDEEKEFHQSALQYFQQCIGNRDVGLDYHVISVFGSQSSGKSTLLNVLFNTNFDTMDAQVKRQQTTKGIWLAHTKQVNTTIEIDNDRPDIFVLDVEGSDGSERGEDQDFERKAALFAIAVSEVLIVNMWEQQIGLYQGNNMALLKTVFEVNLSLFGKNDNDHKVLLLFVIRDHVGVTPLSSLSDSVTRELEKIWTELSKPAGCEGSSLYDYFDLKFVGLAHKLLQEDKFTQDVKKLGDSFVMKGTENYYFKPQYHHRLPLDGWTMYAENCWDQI

[3] = target: T2, His6-tagged Sey1p-(1-675), the N-terminal cytoplasmic region of Sey1p (S. cerevisiae, UniProt Q99287 1-675); experiment: as above; details: both partners purified
T2 construct: in pET28a; source: E. coli Rosetta-2 DE3, purified (Ni-NTA)
T2 sequence (looked up): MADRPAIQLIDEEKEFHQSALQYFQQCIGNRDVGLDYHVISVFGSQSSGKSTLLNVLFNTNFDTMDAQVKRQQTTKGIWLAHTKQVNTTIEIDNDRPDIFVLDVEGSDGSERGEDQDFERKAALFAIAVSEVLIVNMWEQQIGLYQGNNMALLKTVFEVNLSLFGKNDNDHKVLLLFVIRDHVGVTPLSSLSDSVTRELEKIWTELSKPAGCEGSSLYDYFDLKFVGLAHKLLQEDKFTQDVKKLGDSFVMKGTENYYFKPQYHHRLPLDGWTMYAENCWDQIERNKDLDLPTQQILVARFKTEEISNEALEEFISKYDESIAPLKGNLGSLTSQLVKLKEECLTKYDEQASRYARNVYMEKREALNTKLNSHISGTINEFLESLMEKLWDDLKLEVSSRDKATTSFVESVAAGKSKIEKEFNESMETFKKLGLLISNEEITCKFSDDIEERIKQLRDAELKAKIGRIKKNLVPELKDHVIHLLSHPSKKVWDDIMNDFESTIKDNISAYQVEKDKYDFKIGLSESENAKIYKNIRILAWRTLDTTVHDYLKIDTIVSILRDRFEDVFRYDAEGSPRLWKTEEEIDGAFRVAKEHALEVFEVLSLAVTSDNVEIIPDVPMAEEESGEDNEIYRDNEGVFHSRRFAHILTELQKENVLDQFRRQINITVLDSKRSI

stoichiometry N [1]: 2
Molecule: Sey1p-ΔTM (domain or fragment)

binding result [2]: binds | binding result [3]: binds
B1: Lnp1p peptide, a synthetic peptide with the N-terminal region (amino acids 1-52) of Lnp1p (peptide, UniProt P38878 1-52, looked up)
peptide: MFSALGKWVRGSRNDKDFVTKYTADLSQITSQIHQLDVALKKSQSILSQWQS
notes: Lnp1p (yeast lunapark), S. cerevisiae, amino acids 1-52; also called LNP1 peptide; source: synthetic peptide (custom, Anygen)
